From patent publication US6465220B1, “Glycosylation using GalNac-T4 transferase” (GlycoZym ApS, priority 1998, dated 2002) come the findings set out here.

Substrate in this data set: C[C@H](NC(=O)[C@H](C)NC(=O)[C@@H](NC(=O)[C@@H](NC(=O)[C@H](CCC(=O)O)NC(=O)[C@@H]1CCCN1C(=O)[C@@H]1CCCN1C(=O)[C@H](C)NC(=O)[C@H](CO)NC(=O)[C@H](CO)NC(=O)[C@H](CO)NC(=O)[C@@H]1CCCN1C(=O)[C@@H]1CCCN1C(=O)[C@H](C)NC(=O)[C@@H]1CCCN1C(=O)[C@@H](NC(=O)[C@@H](NC(=O)[C@H](C)NC(=O)[C@H](CO)NC(=O)[C@@H]1CCCN1C(=O)[C@@H](NC(=O)[C@@H]1CCCN1C(=O)[C@@H]1CCCN1C(=O)[C@@H](N)CS)[C@@H](C)O)[C@@H](C)O)[C@@H](C)O)[C@@H](C)O)[C@@H](C)O)C(=O)O
Kind of data set: GalNAc-transferase assay with purified recombinant GalNAc-T1. It counts as biochemical, human. Particulars: other: acceptor substrate; pH 7.5. As to the method: The following examples are provided to illustrate certain preferred embodiments of the invention, and should be considered as illustration and not as limitation. In the examples, GalNAc-transferase assays were performed in 50 μl total reaction mixtures containing 25 mM cacodylate (pH 7.5), 10 mM MnCl2, 0.1-0.25% Triton X-100, 150-200 μM UDP-[^14C]-GalNAc (4,000 cpm/nmole) (Amersham) and 0.06-1 mM acceptor peptides. Peptides were either synthesized or obtained from Carlbiotech (Copenhagen), or Neosystems (Strasbourg), and quality was ascertained by amino acid analysis and mass spectrometry. Peptides Muc-1a, Muc-1b, and TAP24, were derived from the tandem repeat of human MUC1, Gendler et al., J. Biol. Chem. 265:15286 (1990), and Muc2, Muc5AC, and Muc7 from the tandem repeats of MUC2, MUC5AC, and MUC7, respectively. Gum et al., J. Biol. Chem. 264:6480 (1989); Porchet et al., Biochem. Soc. Trans. 23:800 (1995); Bobek et al., J. Biol. Chem. 268:20563 (1993). GalNAc4TAP24 was produced by in vitro glycosylation using GalNAc-T2 as described in Wandall et al., J. Biol. Chem. 272:23503 (1997). Products were quantified by scintillation counting after chromatography on Dowex-1, octadecyl silica cartridges (Bakerbond), or HPLC (PC3.2/3 or mRPC C2/C18 SC2.1/10 Pharmacia, Smart System). Products produced by in vitro glycosylation were in most cases also confirmed by mass spectrometry. […]

B1: GalNAc-T1 (Homo sapiens) (protein)
chain: GLPAGDVLEPVQKPHEGPGEMGKPVVIPKEDQEKMKEMFKINQFNLMASEMIALNRSLPDVRLEGCKTKVYPDNLPTTSVVIVFHNEAWSTLLRTVHSVINRSPRHMIEEIVLVDDASERDFLKRPLESYVKKLKVPVHVIRMEQRSGLIRARLKGAAVSKGQVITFLDAHCECTVGWLEPLLARIKHDRRTVVCPIIDVISDDTFEYMAGSDMTYGGFNWKLNFRWYPVPQREMDRRKGDRTLPVRTPTMAGGLFSIDRDYFQEIGTYDAGMDIWGGENLEISFRIWQCGGTLEIVTCSHVGHVFRKATPYTFPGGTGQIINKNNRRLAEVWMDEFKNFFYIISPGVTKVDYGDISSRVGLRHKLQCKPFSWYLENIYPDSQIPRHYFSLGEIRNVETNQCLDNMARKENEKVGIFNCHGMGGNQVFSYTANKEIRTDDLCLDVSKLNGPVTMLKCHHLKGNQLWEYDPVKLTLQHVNSNQCLDKATEEDSQVPSIRDCNGSRSQQWLLRNVTLPEIF
notes: Control constructs pAcGP67-GalNAc-T1-sol, pAcGP67-GalNAc-T2-sol, pAcGP67-GalNAc-T3-sol, and pAcGP67-O^2-sol were prepared as previously described; made in house; host or cells: insect cells (baculovirus, pAcGP67)
For the protein B1, the Km was 40 µM and the Vmax was determined as 0.76 nmol/min/µg.

As a reminder, the Km is the concentration of substrate that gives half-maximal velocity.
